± gives the uncertainty stated by the source.

The nature of the series: abundance fitness (aPCA) (normalised: wild type 0, dead -1); higher = more abundant; growth selection in yeast, the domain comes from the species named. To be noted: Homo sapiens.
For “Transcriptional activator Myb K182M, P10242”, the abundance fitness worked out at 0.037 ± 0.085.
“Transcriptional activator Myb K182N, P10242”: the abundance fitness was -0.177 ± 0.15.
For “Transcriptional activator Myb K182P, P10242” the value was -0.678 ± 0.15; for “Transcriptional activator Myb K182Q, P10242”, 0.136 ± 0.12; for “Transcriptional activator Myb K182R, P10242”, 0.068 ± 0.056.
In the case of “Transcriptional activator Myb K182S, P10242”, the abundance fitness is -0.161 ± 0.069.
As for “Transcriptional activator Myb K182T, P10242”, the abundance fitness was -0.696 ± 0.14.
“Transcriptional activator Myb K182V, P10242” came in with an abundance fitness of -0.176 ± 0.058.
On to “Transcriptional activator Myb K182W, P10242”, for which the abundance fitness was -0.184 ± 0.076.
For “Transcriptional activator Myb K182Y, P10242” the value was -0.253 ± 0.17; for “Transcriptional activator Myb K192A, P10242”, -0.247 ± 0.12.
In the case of “Transcriptional activator Myb K192C, P10242” it was -0.024 ± 0.12; in that of “Transcriptional activator Myb K192D, P10242”, -0.448 ± 0.21.
The substance “Transcriptional activator Myb K192F, P10242” had an abundance fitness of -0.301 ± 0.29.
Substance “Transcriptional activator Myb K192G, P10242” showed an abundance fitness of -0.219 ± 0.053.
For “Transcriptional activator Myb K192H, P10242” the value was -0.156 ± 0.2; for “Transcriptional activator Myb K192I, P10242”, -0.063 ± 0.14.
Substance “Transcriptional activator Myb K192L, P10242” registered an abundance fitness of 0.004 ± 0.095.
Turning to “Transcriptional activator Myb K192M, P10242”, the abundance fitness is -0.122 ± 0.16.
For the substance “Transcriptional activator Myb K192N, P10242”, the abundance fitness is -0.162 ± 0.43.
For “Transcriptional activator Myb K192P, P10242” the value was -0.082 ± 0.12.
Regarding “Transcriptional activator Myb K192Q, P10242”, the abundance fitness is -0.337 ± 0.16.
In turn, “Transcriptional activator Myb K192R, P10242” displayed an abundance fitness of -0.04 ± 0.064.
For “Transcriptional activator Myb K192S, P10242” the value was -0.074 ± 0.093; for “Transcriptional activator Myb K192T, P10242”, -0.232 ± 0.13.
For “Transcriptional activator Myb K192V, P10242” the value was -0.207 ± 0.074; for “Transcriptional activator Myb K192W, P10242”, -0.334 ± 0.11; for “Transcriptional activator Myb K192Y, P10242”, -0.535 ± 0.17.
For “Transcriptional activator Myb K204A, P10242”, the abundance fitness was 0.054 ± 0.091.
With “Transcriptional activator Myb K204C, P10242”, the abundance fitness is -0.317 ± 0.12.
For “Transcriptional activator Myb K204D, P10242” the value was -0.164 ± 0.15; for “Transcriptional activator Myb K204E, P10242”, -0.062 ± 0.11; for “Transcriptional activator Myb K204F, P10242”, -0.097 ± 0.19.
“Transcriptional activator Myb K204G, P10242”: the abundance fitness is -0.166 ± 0.11.
For “Transcriptional activator Myb K204H, P10242” the value was -0.401 ± 0.39.
Consider “Transcriptional activator Myb K204I, P10242”, for which the abundance fitness is -0.055 ± 0.16.
In the case of “Transcriptional activator Myb K204L, P10242” it was -0.07 ± 0.18; in that of “Transcriptional activator Myb K204M, P10242”, -0.111 ± 0.11.
As to “Transcriptional activator Myb K204N, P10242”, the abundance fitness is -0.153 ± 0.097.
The substance “Transcriptional activator Myb K204Q, P10242” showed an abundance fitness of 0.192 ± 0.19.
Regarding “Transcriptional activator Myb K204R, P10242”, the abundance fitness worked out at 0.066 ± 0.12.
Regarding “Transcriptional activator Myb K204T, P10242”, the abundance fitness is -0.012 ± 0.13.
“Transcriptional activator Myb K204V, P10242” gave an abundance fitness of -0.29 ± 0.22.
“Transcriptional activator Myb K204W, P10242” showed an abundance fitness of -0.443 ± 0.11.
The substance “Transcriptional activator Myb K204Y, P10242” yielded an abundance fitness of -0.16 ± 0.25.
“Transcriptional activator Myb L172A, P10242” returned an abundance fitness of -0.291 ± 0.076.
In the case of “Transcriptional activator Myb L172C, P10242”, the abundance fitness is -0.268 ± 0.14.
As for “Transcriptional activator Myb L172E, P10242”, the abundance fitness was -0.177 ± 0.089.
Take “Transcriptional activator Myb L172F, P10242”: the abundance fitness is -0.35 ± 0.24.
Substance “Transcriptional activator Myb L172H, P10242” had an abundance fitness of -0.173 ± 0.14.
For the substance “Transcriptional activator Myb L172I, P10242”, the abundance fitness was -0.354 ± 0.16.
Substance “Transcriptional activator Myb L172K, P10242” gave an abundance fitness of -0.108 ± 0.1.
“Transcriptional activator Myb L172M, P10242” returned an abundance fitness of -0.175 ± 0.09.
“Transcriptional activator Myb L172N, P10242” registered an abundance fitness of -0.34 ± 0.14.
For “Transcriptional activator Myb L172P, P10242”, the abundance fitness was -0.486 ± 0.19.
Substance “Transcriptional activator Myb L172Q, P10242” displayed an abundance fitness of -0.117 ± 0.1.
As to “Transcriptional activator Myb L172R, P10242”, the abundance fitness is -0.279 ± 0.056.
In the case of “Transcriptional activator Myb L172S, P10242” it was -0.236 ± 0.085; in that of “Transcriptional activator Myb L172T, P10242”, -0.359 ± 0.11; in that of “Transcriptional activator Myb L172V, P10242”, -0.36 ± 0.073.
In the case of “Transcriptional activator Myb L172W, P10242” it was -0.303 ± 0.089.
On to “Transcriptional activator Myb L173A, P10242”, for which the abundance fitness is -0.623 ± 0.11.
Take “Transcriptional activator Myb L173C, P10242”: the abundance fitness turned out to be 0.012 ± 0.12.
In the case of “Transcriptional activator Myb L173D, P10242”, the abundance fitness was -0.958 ± 0.22.
Substance “Transcriptional activator Myb L173E, P10242” had an abundance fitness of -0.621 ± 0.088.
Turning to “Transcriptional activator Myb L173G, P10242”, the abundance fitness is -1.08 ± 0.11.
For “Transcriptional activator Myb L173I, P10242” the value was 0.253 ± 0.44.
For the substance “Transcriptional activator Myb L173M, P10242”, the abundance fitness was -0.305 ± 0.12.
For “Transcriptional activator Myb L173P, P10242” the value was -0.656 ± 0.23; for “Transcriptional activator Myb L173Q, P10242”, -1.13 ± 0.25; for “Transcriptional activator Myb L173R, P10242”, -0.961 ± 0.078.
For the substance “Transcriptional activator Myb L173S, P10242”, the abundance fitness is -0.933 ± 0.11.
Substance “Transcriptional activator Myb L173T, P10242” registered an abundance fitness of -0.28 ± 0.12.
“Transcriptional activator Myb L173V, P10242”: the abundance fitness was -0.127 ± 0.093.
Substance “Transcriptional activator Myb L173W, P10242” returned an abundance fitness of -0.968 ± 0.11.
Substance “Transcriptional activator Myb L173Y, P10242” came in with an abundance fitness of -0.627 ± 0.31.
In the case of “Transcriptional activator Myb L199A, P10242” it was -0.05 ± 0.062; in that of “Transcriptional activator Myb L199C, P10242”, -0.076 ± 0.1.
“Transcriptional activator Myb L199D, P10242” showed an abundance fitness of 0.011 ± 0.12.
For the substance “Transcriptional activator Myb L199E, P10242”, the abundance fitness was -0.005 ± 0.081.
In the case of “Transcriptional activator Myb L199F, P10242” it was -0.179 ± 0.097; in that of “Transcriptional activator Myb L199H, P10242”, -0.228 ± 0.2; in that of “Transcriptional activator Myb L199I, P10242”, -0.056 ± 0.1.
Turning to “Transcriptional activator Myb L199K, P10242”, the abundance fitness was 0.025 ± 0.083.
“Transcriptional activator Myb L199M, P10242” yielded an abundance fitness of -0.071 ± 0.095.
In turn, “Transcriptional activator Myb L199N, P10242” registered an abundance fitness of 0.043 ± 0.14.
“Transcriptional activator Myb L199P, P10242” showed an abundance fitness of -0.013 ± 0.1.
“Transcriptional activator Myb L199Q, P10242”: the abundance fitness was -0.152 ± 0.12.
In turn, “Transcriptional activator Myb L199R, P10242” yielded an abundance fitness of -0.045 ± 0.057.
In turn, “Transcriptional activator Myb L199S, P10242” came in with an abundance fitness of 0.041 ± 0.068.
For “Transcriptional activator Myb L199T, P10242” the value was -0.043 ± 0.092; for “Transcriptional activator Myb L199V, P10242”, 0.032 ± 0.065; for “Transcriptional activator Myb L199W, P10242”, -0.167 ± 0.1.
On to “Transcriptional activator Myb L199Y, P10242”, for which the abundance fitness was -0.175 ± 0.21.
For “Transcriptional activator Myb M189A, P10242” the value was -0.343 ± 0.068.

These data come from the Human Domainome abundance scans (Beltran et al. 2025).
